According to paper doi:10.1101/2022.05.05.490830:
Read-outs that look alike come from different tables or passages of the source.

Key:
Test in all cases: BLI
hPolεCD (E. coli) [1] = target: T1, hPolεCD (E. coli) (Homo sapiens, UniProt Q07864 28-1194)
hPolεCD (E. coli) [2] = target: T1, hPolεCD (E. coli); remark: listed apart in the source
hPolεCD (insect) = hPolεCD (insect) (Homo sapiens, UniProt Q07864 28-1194)
hPolεCD (insect), sequence (Q07864 28-1194): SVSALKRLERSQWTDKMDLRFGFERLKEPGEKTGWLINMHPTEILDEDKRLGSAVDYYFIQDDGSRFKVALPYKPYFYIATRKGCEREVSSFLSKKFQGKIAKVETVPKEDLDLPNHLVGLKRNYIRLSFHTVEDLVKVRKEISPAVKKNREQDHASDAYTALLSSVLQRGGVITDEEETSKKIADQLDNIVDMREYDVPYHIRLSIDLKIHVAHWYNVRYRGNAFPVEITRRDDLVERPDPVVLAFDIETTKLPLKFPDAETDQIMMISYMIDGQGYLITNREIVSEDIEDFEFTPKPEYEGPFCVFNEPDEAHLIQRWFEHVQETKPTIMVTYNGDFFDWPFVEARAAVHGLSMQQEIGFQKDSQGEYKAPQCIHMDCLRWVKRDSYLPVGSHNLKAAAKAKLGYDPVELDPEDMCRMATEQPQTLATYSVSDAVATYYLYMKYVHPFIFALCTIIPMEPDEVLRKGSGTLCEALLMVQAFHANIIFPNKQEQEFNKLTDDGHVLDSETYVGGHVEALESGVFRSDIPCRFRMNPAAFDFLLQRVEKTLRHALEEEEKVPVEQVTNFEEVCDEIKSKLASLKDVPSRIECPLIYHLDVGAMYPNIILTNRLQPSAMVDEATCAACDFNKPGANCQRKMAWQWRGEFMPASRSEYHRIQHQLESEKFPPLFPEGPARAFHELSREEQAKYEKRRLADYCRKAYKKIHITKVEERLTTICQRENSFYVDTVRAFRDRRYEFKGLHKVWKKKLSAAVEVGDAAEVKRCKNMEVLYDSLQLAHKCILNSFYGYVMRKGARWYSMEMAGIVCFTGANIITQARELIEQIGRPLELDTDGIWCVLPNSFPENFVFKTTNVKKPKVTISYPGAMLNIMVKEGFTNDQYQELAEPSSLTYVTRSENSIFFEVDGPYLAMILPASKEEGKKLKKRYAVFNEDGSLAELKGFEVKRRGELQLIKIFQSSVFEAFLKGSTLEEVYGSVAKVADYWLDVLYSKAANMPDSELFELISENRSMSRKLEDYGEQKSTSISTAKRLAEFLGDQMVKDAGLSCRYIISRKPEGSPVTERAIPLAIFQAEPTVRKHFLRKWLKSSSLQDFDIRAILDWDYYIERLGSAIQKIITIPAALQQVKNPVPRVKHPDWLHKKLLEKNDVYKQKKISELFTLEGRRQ

T1 sequence (Q07864 28-1194): as above

B1: Octet template:primer 23/11 (dsDNA)
DNA 1: AATACATAAGCGCTCCAGGCAAT
DNA 2: GCCTGGAGCGC
modifications: 3' dideoxycytidine on primer
Kd (hPolεCD (E. coli) [1]): 167 ± 24 nM | Kd (hPolεCD (E. coli) [2]): 3260 ± 386 nM | Kd (hPolεCD (insect)): 213 ± 43 nM
